B1: DLDH744 (Sporolactobacillus inulinus CASD) (protein)
chain: MKIIMFSVRDDEEAAIREWEKKTGVQVDINRLELDAETAQLTKGYDGIVIQQRSHISNPAVYETLQKNGLRQLTSRTAGYDMIDLEQASERGLVVTNVPAYSPNSVAELALTQTMRLIRNLPLFDARGAEQDFRWAGLMAREIRSLTVGIIGAGRIGGTVARLFKALGATVIANDIVERVELKDIVTYVSKEELLQAADVVTLHVPLMDSTTQLIDADALALMKNDAVLINASRGPVVDTDALIAALQNKQIAGAALDTLNGEEHFFNQDLCGKELPSEQLKVLRTLPNVLITPHIGFYTNKAVQNMVEISLNDVLAILKTGTSEHQLNKVAVEN
notes: full length, 335 residues, homodimer; vector pET-28a(+), E. coli BL21(DE3); purified

What was measured:
[1] = molecular target: D-lactate dehydrogenase from Sporolactobacillus inulinus CASD (DLDH744) (Sporolactobacillus inulinus CASD); experiment: crystal structure; DLDH744 in complex with NAD+; molecular replacement, refined at 3.15 Å; homo-dimer in one asymmetric unit
purified protein [2] = substrate: N[C@@H](CCC(=O)O)C(=O)O; experiment: purified protein; assay type: biochemical, Sporolactobacillus inulinus; settings: 100 mM PBS pH 5.5, 30°C, oxidative deamination, cofactor of the kinetic run not clearly told (0.2 mM NAD(P)+ in activity assay)
purified protein [3] = substrate: O=C(O)C(=O)Cc1ccccc1; experiment: purified protein; assay type: biochemical, Sporolactobacillus inulinus; settings: 100 mM PBS pH 5.5, 30°C, 0.2 mM NADH or NADPH (which one not told)
purified protein [4] = substrate: CC(=O)C(=O)O; experiment: purified protein; assay type: biochemical, Sporolactobacillus inulinus; settings: 100 mM PBS pH 5.5, 30°C, 0.2 mM NADH or NADPH (which one not told)

stoichiometry N [1]	Molecule	Km (purified protein [2]) [mM]	kcat (purified protein [2]) [s⁻¹]	Km (purified protein [3]) [mM]	Km (purified protein [4]) [mM]	kcat (purified protein [4]) [s⁻¹]
2	D-lactate dehydrogenase from Sporolactobacillus inulinus CASD (DLDH744) (enzyme)	–	–	–	–	–
–	B1	5.7 ± 0.09	0.372 ± 0.0017	3.32 ± 0.08	3.4 ± 0.02	8.537 ± 0.127

Reference: paper PMC4580590
